According to US20240294594A1:

Columns and labels:
FcγRIIIa F158 (human) [1] = biological target: FcγRIIIa F158 (human) (UniProt P08637); test: SPR (Biacore 8K), ratio of 1/Kd values
FcγRIIIa V158 (human) [2] = biological target: FcγRIIIa V158 (human) (UniProt P08637); test: SPR (Biacore 8K), ratio of 1/Kd values
FcγRIIIa F158 (human) [3] = biological target: FcγRIIIa F158 (human) (UniProt P08637); test: SPR (Biacore 8K), receptor captured via anti-His antibody
FcγRIIIa V158 (human) [4] = biological target: FcγRIIIa V158 (human) (UniProt P08637); test: as above
FcγRIIb = FcγRIIb (UniProt P31994); test: as above
Chain of FcγRIIb (P31994 46-217 limits assumed): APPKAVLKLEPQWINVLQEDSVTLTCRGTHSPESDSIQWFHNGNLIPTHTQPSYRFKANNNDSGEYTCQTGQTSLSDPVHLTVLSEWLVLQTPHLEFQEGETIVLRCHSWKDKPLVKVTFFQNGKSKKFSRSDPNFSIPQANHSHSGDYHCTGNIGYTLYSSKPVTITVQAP

Chain of FcγRIIIa V158 (human) (P08637 17-208 F176V limits assumed): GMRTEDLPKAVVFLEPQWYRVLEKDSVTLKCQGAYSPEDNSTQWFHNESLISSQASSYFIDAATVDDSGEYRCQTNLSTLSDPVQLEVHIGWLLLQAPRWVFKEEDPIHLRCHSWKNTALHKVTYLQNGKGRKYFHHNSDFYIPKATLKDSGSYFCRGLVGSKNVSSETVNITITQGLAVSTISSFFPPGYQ
Chain of FcγRIIIa F158 (human) (P08637 17-208 limits assumed): as the sequence (P08637 17-208 F176V limits assumed) above, with V160F counted along it

- A/I (F158), affinity towards FcγRIIIa over affinity towards FcγRIIb (FcγRIIIa F158 (human) [1]): 32.9
- A/I (V158), affinity towards FcγRIIIa over affinity towards FcγRIIb (FcγRIIIa V158 (human) [2]): 161
- Kd (FcγRIIIa F158 (human) [3]): 423 nM
- Kd (FcγRIIIa V158 (human) [4]): 86.4 nM
- Kd (FcγRIIb): 13900 nM
Substance: Zolbetuximab (antibody)
